According to US6458552B1, “Metalloprotease peptide substrates and methods” (Ortho-McNeil Pharmaceutical, Inc., priority 2000, dated 2002):

T1: AD8P FRET peptide X-RTAAVFRP-Z (not fully specified)
T1 chain: RTAAVFRP

T2: AD8P2 FRET peptide X-RVRRALPS-Z (not fully specified)
T2 chain: RVRRALPS

T3: CD27L FRET peptide X-RFAQAQQQLP-Z (not fully specified)
T3 chain: RFAQAQQQLP

T4: CatE FRET peptide X-KPAAFFRL-Z (not fully specified)
T4 chain: KPAAFFRL

T5: CatE1 FRET peptide X-KPAKFFRL-Z (not fully specified)
T5 chain: KPAKFFRL

T6: KAS-1 FRET peptide Z-RGVVNASSRLAK-X (not fully specified)
T6 chain: RGVVNASSRLAK

T7: KL1 FRET peptide X-PPVAASSLRN-Z (not fully specified)
T7 chain: PPVAASSLRN

T8: Mat FRET peptide Z-RPLGLAR-X (not fully specified)
T8 chain: RPLGLAR

T9: TNFB2 FRET peptide X-PSAAQTARQHP-Z (not fully specified)
T9 chain: PSAAQTARQHP

T10: TNFα FRET peptide X-PLAQAVRSSS-Z (not fully specified)
T10 chain: PLAQAVRSSS

T11: TNFα(-4 + 6) FRET peptide Z-LAQAVRSSSR-X (not fully specified)
T11 chain: LAQAVRSSSR

B1: soluble recombinant human MDC-L, active form (protein)
chain: VQEHEKYIEYYLVLDNGEFKRYNENQDEIRKRVFEMANYVNMLYKKLNTHVALVGMEIWTDKDKIKITPNASFTLENFSKWRGSVLSRRKRHDIAQLITATELAGTTVGLAFMSTMCSPYSVGVVQDHSDNLLRVAGTMAHEMGHNFGMFHDDYSCKCPSTICVMDKALSFYIPTDFSSCSRLSYDKFFEDKLSNCLFNAP
B2: MDC-L: recombinant soluble MDC-L: pro- and protease domains with C-terminal FLAG epitope (protein)
chain: B1 chain
modifications: left off: small tags and cut ends
B3: soluble recombinant human ADAM15, active form (protein)
chain: DVVTETKTVELVIVADHSEAQKYRDFQHLLNRTLEVALLLDTFFRPLNVRVALVGLEAWTQRDLVEISPNPAVTLENFLHWRRAHLLPRLPHDSAQLVTGTSFSGPTVGMAIQNSICSPDFSGGVNMDHSTSILGVASSIAHELGHSLGLDHDLPGNSCPCPGPAPAKTCIMEASTDFLPGLNFSNCSRRALEKALLDGMGSCLFERL
B4: recombinant ADAM17 (protein)
chain: RADPDPMKNTCKLLVVADHRFYRYMGRGEESTTTNYLIELIDRVDDIYRNTSWDNAGFKGYGIQIEQIRILKSPQEVKPGEKHYNMAKSYPNEEKDAWDVKMLLEQFSFDIAEEASKVCLAHLFTYQDFDMGTLGLAYVGSPRANSHGGVCPKAYYSPVGKKNIYLNSGLTSTKNYGKTILTKEADLVTTHELGHNFGAEHDPDGLAECAPNEDQGGKYVMYPIAVSGDHENNKMFSNCSKQSIYKTIESKAQECFQERSNKV
B5: soluble recombinant human ADAM8, active (processed) form (protein)
chain: RYVELYVVVDNAEFQMLGSEAAVRHRVLEVVNHVDKLYQKLNFRVVLVGLEIWNSQDRFHVSPDPSVTLENLLTWQARQRTRRHLHDNVQLITGVDFTGTTVGFARVSAMCSHSSGAVNQDHSKNPVGVACTMAHEMGHNLGMDHDENVQGCRCQERFEAGRCIMAGSIGSSFPRMFSDCSQAYLESFLERPQSVCLANAP

Tests used:
[1] = tested on: ADAM8; test: ADAM8 protein expression in THP-1 cells (immunoblot); assay type: cell-based, human; details: LPS 100 ng/ml 16 hours, IFN-γ 200U/ml 24 hours
Procedure: Polyclonal antisera against ADAM8 and ADAM15 were generated by immunizing rabbits with KLH-conjugated peptides corresponding to the C-terminal sequences of ADAM8 and 15, respectively. The antisera were used to detect ADAM8 and ADAM15 in THP-1 cell lysates. THP-1 cells were treated with interferon(IFN)-γ (200U/ml) or bacterial lipopolysaccharide (LPS) (100 ng/ml), for 24 hours or 16 hours, respectively. The cells were then harvested, washed with PBS and lysed in PBS containing 1% NP-40 and Complete® protease inhibitors. The cell extracts were analyzed for expression of ADAM8 and ADAM15 by SDS-PAGE, transfer to nitrocellulose, and immunoblotting with the antisera to ADAM8 and ADAM15, respectively. […] The corresponding pre-immune sera gave no positive bands at these molecular weights for THP-1 cell extracts in similar assays.

[2] = target: T1, AD8P FRET peptide X-RTAAVFRP-Z
[3] = target: T2, AD8P2 FRET peptide X-RVRRALPS-Z
[4] = target: T3, CD27L FRET peptide X-RFAQAQQQLP-Z
[5] = target: T4, CatE FRET peptide X-KPAAFFRL-Z
[6] = target: T5, CatE1 FRET peptide X-KPAKFFRL-Z
[7] = target: T6, KAS-1 FRET peptide Z-RGVVNASSRLAK-X
[8] = target: T7, KL1 FRET peptide X-PPVAASSLRN-Z
[9] = target: T8, Mat FRET peptide Z-RPLGLAR-X
[10] = target: T9, TNFB2 FRET peptide X-PSAAQTARQHP-Z
[11] = target: T10, TNFα FRET peptide X-PLAQAVRSSS-Z
[12] = target: T11, TNFα(-4 + 6) FRET peptide Z-LAQAVRSSSR-X
[13] = tested on: membrane-bound CD23; test: Cleavage of CD23 from the surface of U937 cells by ADAM enzymes (flow cytometry); assay type: cell-based, human; details: U-937 cells, one hour at 37° C.
Procedure: U-937 (ATCC CRL-1593.2), a monoblastoid cell line, were harvested, washed and resuspended in HEPES-buffered saline, pH 7.5. Then the cells were treated for one hour at 37° C. in the absence or presence of ADAM8, ADAM17, ADAM15 or MDC-L. As a further control, some cells were incubated in the presence of ADAM8, ADAM17, ADAM15 or MDC-L with the addition of Inhibitor C. Intact, membrane-bound CD23 was then detected by staining the cells with a FITC-conjugated anti-human CD23 antibody (Pharmingen) and detection by flow cytometry.

Molecule	Relative proteolytic activity [2]	Relative proteolytic activity [3]	Relative proteolytic activity [4]	Relative proteolytic activity [5]	Relative proteolytic activity [6]	Relative proteolytic activity [7]	Relative proteolytic activity [8]	Relative proteolytic activity [9]	Relative proteolytic activity [10]	Relative proteolytic activity [11]	Relative proteolytic activity [12]	Cleavage of membrane-bound CD23 from the cell surface [13]	also measured
IFN-γ: interferon-γ													Up-regulation of ADAM8 at the protein level [1]: approximately ten-fold
B1	*	***	****	*****	*****	***	***	***	***	***	*		
B2												similarly found to cleave membrane-bound CD23	
B3	*	***	****	*****	*****	***	***	***	***	***	*		
B4	*****	(-)	(-)	(-)	(-)	(-)	(-)	***	(-)	***	***	does not cleave CD 23	
B5	*	***	****	*****	*****	***	***	***	***	***	*		Hill coefficient [4]: allosteric kinetics with a Hill coefficient of approximately 3; K0.5 (substrate concentration at which the enzyme activity was 50% of the Vmax) [4]: 5 µM; Hill coefficient [5]: allosteric kinetics with a Hill coefficient of approximately 3; K0.5 (substrate concentration at which the enzyme activity was 50% of the Vmax) [5]: 5 µM; FRET peptide zymography [6]: lanes 2 and 3 contain active, processed, ADAM8 preparations; Hill coefficient [6]: allosteric kinetics with a Hill coefficient of approximately 3; K0.5 (substrate concentration at which the enzyme activity was 50% of the Vmax) [6]: 2.5 µM; Hill coefficient [11]: allosteric kinetics with a Hill coefficient of approximately 3; K0.5 (substrate concentration at which the enzyme activity was 50% of the Vmax) [11]: 5 µM
